Test results reported in US7947279B2, “Peptide having hydrolase activity” (The Trustees of Columbia University in the City of New York, priority 2005, dated 2011).
Entries after “also recorded” stand apart in the source; their conditions may differ.

Tests used:
[1] = system: BST at the Schaffer collateral/CA1 connection of hippocampal slices; test: Basal synaptic transmission (BST) in hippocampal slices; assay type: cell-based, mouse; conditions: for BST in WT slices (words): fusion protein 20 nM 1 hr or Aβ 200 nM 20 min, alone
[2] = system: CA1-LTP in hippocampal slices; test: CA1-LTP in hippocampal slices (theta-burst); assay type: cell-based, mouse; conditions: for Aβ-induced impairment of CA1-LTP (words): fusion protein 20 nM 1 hr, then plus Aβ 200 nM 20 min; for LTP in slices not treated with Aβ (words): fusion protein 20 nM, 3 theta-burst trains
[3] = system: SY5Y neuroblastoma cells transfected with a degron CL1-GFP expression vector; test: Proteasome reporter assay (GFP^u); assay type: cell-based, human; conditions: fusion protein 20 nM with Aβ
Method in brief: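 SH-SY5Y neuroblastoma cells stably expressing GFP fused to CL1 degron (GFP^u) in DMEM with 15% FBS. After treatment, GFP^u levels quantified by densitometry of anti-GFP immunoblots of total extracts (10 ug/lane), normalized to ERK.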

[4] = system: mice (WT and APP/PS1); test: Contextual and cued fear conditioning; assay type: in vivo, mouse; conditions: for contextual freezing of APP/PS1 mice 1 day after training: 0.02-0.04 g/kg i.p. 4 hrs before training, 3-5 month-old
Procedure: Behavioral Studies: Fear conditioning was performed in a conditioning chamber as previously described (Bourtchuladze et al., 1994; Gong et al., 2004). For contextual and cued fear conditioning mice were placed in the conditioning chamber for 2 min before the onset of a discrete tone (CS) (a 30 sec sound at 2800 Hz and 85 dB). In the last 2 sec of the CS, mice were given a foot shock (US) of 0.50 mA for 2 sec through the bars of the floor. After the CS/US pairing, the mice were left in the conditioning chamber for another 30 sec and then placed back in their home cages. Freezing behavior, defined as the absence of all movement except for that necessitated by breathing, was scored using Freezeview software. To evaluate contextual fear learning, freezing was measured for 5 min in the chamber in which the mice were trained 24 hrs after training. To evaluate cued fear conditioning, following contextual testing, the mice were placed in a novel context (triangular cage with smooth flat floor and with vanilla odorant) for 2 min (pre-CS test), after which they were exposed to the CS for 3 min (CS test), and freezing was measured. To evaluate the contextual fear over time, mice were placed for 5 min in the chamber in which the mice were trained 7- 14- 21-days after training. Sensory perception of the shock was determined through threshold assessment. Each animal was placed individually into the conditioning chamber. […] Animal behavior was evaluated for the first visible response to the shock (flinch), the first extreme motor response (run/jump), and the first vocalized distress (scream). Threshold to flinching, jumping, and screaming was quantified for each animal by averaging of the shock intensity at which each animal manifested a behavioral response of that type to the foot shock. Visual, motor, and motivation skills were also tested with visible platform training by measuring the time and the speed to reach a visible platform placed within a pool filled with water (Gong et al., 2004). Both time to reach the platform and swimming speed were recorded and analyzed with a video tracking system (HVS-2020, HVS Image, UK). No difference was observed among different groups of mice in the experiments in which fear conditioning was tested both in the presence of LDN and TAT fusion proteins. To decide the time of administration of LDN, experiments were performed in which the inhibitor was injected intra-peritoneally at different intervals (4 hrs before, 1 hr before, 1 hr after and 4 hrs after) from the electric shock. During the training phase, no difference was found in the freezing of LDN- or vehicle-injected mice.

[5] = system: phospho-CREB at Ser-133; test: Phospho-CREB (Ser-133) Western blot in hippocampal cultures; assay type: cell-based, rat
Method in brief: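 Rat E18 hippocampal neurons cultured serum-free to 5 DIV, lysed in RIPA (pH 7.4, with phosphatase and protease inhibitors). Lysates resolved by SDS-PAGE and immunoblotted with anti-pCREB, HRP detection; band intensities quantified by densitometry and normalized to total ERK1/2.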

[6] = 12-18 month APP/PS1 slices, 20 nM 1 hr
[7] = listed as Uch-L1 fusion protein
[8] = 20 nM, 1 hr, listed as TAT-Uch-L1 fusion protein
[9] = listed as TAT-HA-Uch-L1 peptide

B1: TAT-HA-Uch-L1: fusion protein: 11-amino acid transduction domain of HIV-transactivator protein (TAT) fused with an HA tag and human Uch-L1 (protein)
chain: MQLKPMEINPEMLNKVLSRLGVAGQWRFVDVLGLEEESLGSVPAPACALLLLFPLTAQHENFRKKQIEELKGQEVSPKVYFMKQTIGNSCGTIGLIHAVANNQDKLGFEDGSVLKQFLSETEKMSPEDRAKCFEKNEAIQAAHDAVAQEGQCRVDDKVNFHFILFNNVDGHLYELDGRMPFPVNHGASSEDTLLKDAAKVCREFTEREQGEVRFSAVALCKAA
modifications: left off: small tags and cut ends
For B1, the “BST in slices from 12-18 month-old APP/PS1 mice” value ([1]; 20 nM, 1 hr) was “also improved; also recorded: improved BST”, the BST [1, 6] was “about 94 % that of TAT-HA-treated WT mice” and the “BST in WT slices (words)” value [1] was “did not reveal any significant difference among treatments; also recorded: does not affect CA1-BST”. The “BST in WT slices (words)” value [1, 7] was “does not affect”, the “LTP in slices from 4 month-old APP/PS1 mice” value ([2]; 20 nM, 1 hr) was “far greater potentiation; also recorded: elevated above vehicle treated slices; also recorded: completely reversed” and the “LTP in slices from 4 month-old WT mice” value ([2]; 20 nM, 1 hr) was “did not change the amplitude of LTP; also recorded: had no effect on LTP amplitude”. For the same molecule, the “LTP in slices from 12-18 month-old APP/PS1 mice” value ([2]; 20 nM, 1 hr) was “greater potentiation; also recorded: had a beneficial effect; also recorded: reversed the impairment of LTP”, the “LTP in slices from 12-18 month-old WT mice” value ([2]; 20 nM, 1 hr) was “did not change the amplitude of LTP; also recorded: did not vary the amounts of potentiation; also recorded: did not affect LTP” and the “LTP in slices from 12-18 month-old APP/PS1 mice” value [2, 8] was “reverses the decrease of LTP”. For the same molecule, the “LTP in slices from 12-18 month-old WT mice” value [2, 8] was “does not affect LTP”, the “Levels of LTP at 120 minutes after tetanus” value (shortened to “Levels of LTP at 120 minutes”) ([2]; 4 month APP/PS1 slices, 20 nM 1 hr) was “about 94 % those of TAT-HA-treated WT littermates” and the “Levels of LTP at 120 minutes” value ([2]; 4 month WT slices, 20 nM 1 hr) was “about 98 % those of vehicle-treated WT slices”. The “levels of LTP” value [2, 6] was “about 82 % that of TAT-HA-treated WT littermates”, the “Levels of LTP at 120 minutes” value ([2]; 12-18 month WT slices, 20 nM 1 hr) was 98.5 % of those of TAT-HA-treated WT slices and the “rescue of LTP at different concentrations, S18Y versus TAT-HA-Uch-L1 (words)” value ([2]; 1 hr pre-treatment, then Aβ 200 nM 20 min, as low as 5 nM) was “No difference was detected; also recorded: no difference between the two forms”. The “LTP induced by weak tetanus” value ([2]; WT slices, 1 theta-burst train instead of 3) was “enhanced LTP; also recorded: increases LTP”, the “Aβ-induced impairment of CA1-LTP (words)” value [2] was “protected against LTP suppression; also recorded: completely reversed” and the “Aβ-induced impairment of CA1-LTP (words)” value [2, 9] was “protected against LTP suppression”. For the same molecule, the “Aβ-induced impairment of CA1-LTP (words)” value ([2]; listed as TAT-Uch-L1 fusion protein) was “reversed; also recorded: rescued”, the “Aβ-induced impairment of CA1-LTP (words)” value [2, 7] was “reverses the deficits of LTP” and the “LTP in slices not treated with Aβ (words)” value ([2]; 1 hr, WT slices) was “did not change the amplitude of LTP; also recorded: had no effect on LTP; also recorded: did not affect the amounts of potentiation; also recorded: did not affect LTP”. The “LTP in slices not treated with Aβ (words)” value ([2]; 1 hr, WT slices, listed as Uch-L1 fusion protein) was “does not affect”, the “baseline transmission in slices without tetanic stimulation” value ([2]; non-tetanized slices) was “did not modify the baseline; also recorded: had no effect on basal synaptic responses; also recorded: did not affect baseline transmission; also recorded: did not affect basal transmission; also recorded: Neither TAT-HA-Uch-L1 nor TAT-HA-iUch-L1 affected baseline transmission” and the “Aβ-induced increase of GFP^u” value [3] was “reversed”. For the same molecule, the “Aβ-induced increase of GFP^u” value [3, 9] was “blocked the increase of GFP^u”, the “contextual freezing of APP/PS1 mice 1 day after training” value [4] was “failed to re-establish normal freezing; also recorded: does not improve learning the day after training” and the “contextual freezing of APP/PS1 mice 1 day after training” value ([4]; listed as TA-HA-Uch-L1) was “failed to re-establish normal freezing”. The “freezing responses of WT mice” value ([4]; 0.02-0.04 g/kg i.p., listed as TA-HA-Uch-L1) was “had no effect”, the “freezing responses of WT mice” value ([4]; 0.02-0.04 g/kg, i.p.) was “did not change the freezing time; also recorded: had no effect” and the “contextual freezing of APP/PS1 mice at 7, 14 and 21 days after training” value ([4]; single injection 0.02-0.04 g/kg i.p. 4 hrs prior to training) was “greatly increased the freezing time; also recorded: improves the retention of contextual fear conditioning; also recorded: re-established normal freezing time”. The “effect of Aβ on glutamate-induced CREB phosphorylation (words)” value ([5]; fusion protein 100 nM, 3 μM Aβ 24 hrs, 50 μM glutamate 15 min) was “totally blocked the effect of Aβ on CREB phosphorylation; also recorded: re-established; also recorded: completely opposed” and the “levels of phospho-CREB” value ([5]; fusion protein alone, no glutamate) was “did not affect levels of phospho-CREB”.
